In assay [1] the target is T1, MBP-SRA-RING DNA^mut (G448D) (human, UniProt Q96T88 405-793, G448D).
T1 construct: human UHRF1 SRA-RING, amino acids 405-793, with G448D (DNA^mut); source: E. coli, purified as described for UHRF1
T1 sequence (looked up): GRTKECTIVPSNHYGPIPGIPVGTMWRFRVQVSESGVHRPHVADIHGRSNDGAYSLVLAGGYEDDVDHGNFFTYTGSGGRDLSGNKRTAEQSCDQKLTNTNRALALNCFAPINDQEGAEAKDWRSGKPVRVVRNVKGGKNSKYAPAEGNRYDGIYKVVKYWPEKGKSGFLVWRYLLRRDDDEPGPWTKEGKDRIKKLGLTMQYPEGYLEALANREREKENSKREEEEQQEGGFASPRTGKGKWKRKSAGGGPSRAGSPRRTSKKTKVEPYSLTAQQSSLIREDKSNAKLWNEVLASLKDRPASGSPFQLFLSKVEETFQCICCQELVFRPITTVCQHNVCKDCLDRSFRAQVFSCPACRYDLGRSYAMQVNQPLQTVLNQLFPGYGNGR
The assay can be described thus: pull-down; as a2 with SRA-RING DNA^mut in the presence of 5 uM DNA. Particulars: both partners purified.

Assay [2] concerns the target T2, His-MBP-tagged UHRF1 SRA-RING (amino acids 405-793) (human, UniProt Q96T88 405-793).
T2 construct: human UHRF1 SRA-RING, amino acids 405-793; also called MBP-SRA-RING; source: E. coli, purified as described for UHRF1
T2 sequence (looked up): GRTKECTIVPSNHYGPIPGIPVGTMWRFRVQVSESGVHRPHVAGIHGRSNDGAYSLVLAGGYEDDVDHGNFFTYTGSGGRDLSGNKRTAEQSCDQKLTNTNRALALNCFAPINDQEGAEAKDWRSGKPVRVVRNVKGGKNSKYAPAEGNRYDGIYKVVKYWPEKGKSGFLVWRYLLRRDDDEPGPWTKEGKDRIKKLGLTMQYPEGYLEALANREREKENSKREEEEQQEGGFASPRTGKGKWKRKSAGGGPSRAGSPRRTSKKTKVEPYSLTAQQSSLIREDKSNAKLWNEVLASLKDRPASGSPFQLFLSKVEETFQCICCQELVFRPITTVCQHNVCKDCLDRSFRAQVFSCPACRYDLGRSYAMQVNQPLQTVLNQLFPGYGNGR
Kind of assay: pull-down; proteins each at 1 uM incubated overnight at 4 C with MBP magnetic beads in 50 mM Tris-HCl pH 8.0, 100 mM NaCl, 0.1% NP-40, 0.5% BSA; blot with GST antibody; also done with 25 uM H3_(1-20)K9me2 peptide, which did not inhibit. Particulars: both partners purified.

B1: GST-tagged UHRF1 TTD-PHD (amino acids 123-366) (domain or fragment, human, UniProt Q96T88 123-366, looked up)
chain: DEDMWDETELGLYKVNEYVDARDTNMGAWFEAQVVRVTRKAPSRDEPCSSTSRPALEEDVIYHVKYDDYPENGVVQMNSRDVRARARTIIKWQDLEVGQVVMLNYNPDNPKERGFWYDAEISRKRETRTARELYANVVLGDDSLNDCRIIFVDEVFKIERPGEGSPMVDNPMRRKSGPSCKHCKDDVNRLCRVCACHLCGGRQDPDKQLMCDECDMAFHIYCLDPPLSSVPSEDEWYCPECRND
notes: human UHRF1 linked tandem Tudor domain and plant homeodomain (TTD-PHD), amino acids 123-366; also called GST-TTD-PHD; source: produced as previously described (Rothbart et al., 2013)
Consider B1, for which the binding result in assay [1] and in assay [2] was “binds” throughout.

The values above are taken from article PMC5012860, “Hemi-methylated DNA regulates DNA methylation inheritance through allosteric activation of H3 ubiquitylation by UHRF1” (eLife, 2016).
